From patent publication US11203621B2, “PH-responsive proteolysis probe” (RIKEN, priority 2015, dated 2021)

How the values were obtained:
[1] = test system: pepsin; experiment: Resistance to degradation by acidic protease (incubation in pH 7.0 / pH 4.0 / pH 4.0 + pepsin buffers); format: physicochemical
Experimental: An Escherichia coli test was conducted which included a treatment of incubating purified recombinant proteins in each of three reaction buffers (pH 7.0/no pepsin, pH 4.0/no pepsin, pH 4.0/0.05% pepsin). The reaction buffers had been prepared as 25 mM HEPES buffer (pH 7.0) or 25 mM acetic acid buffer (pH 4.0) (119 mM NaCl, 2.5 mM KCl, 2 mM CaCl2, 2 mM MgCl2, and 30 mM glucose). A mixture obtained by adding each purified protein to each of the reaction buffers was incubated at 37° C. for 2 hours. The mixture was divided into two, each of which was then subjected to fluorescence intensity measurement and western blotting. The fluorescence intensity measurement was conducted after the pH of the mixture was prepared by diluting the mixture by 200 folds with use of a buffer at pH 7.0. For detection of a protein by means of western blotting, the following antibodies were used. AFFP: a rabbit anti-Azami-Green antibody (MBL, PM052M). EGFP and Ypet: a rabbit anti-GFP antibody (CST, #2555).
With use of SRAI/pRSETB, the same procedure as the fluorescence intensity measurement in the item <Confirmation of resistance to degradation by acidic protease> was carried out. Fluorescence intensity measurement was conducted by irradiating the AFFP part in SRAI with excitation light of 410 nm and irradiating the Ypet part in SRAI with excitation light of 500 nm.
Experiments were conducted to determine whether or not a probe (Rosella) reported by Rosado et al. was suitable for measuring autophagy as compared with SRAI. A construct of Rosella was expressed in Escherichia coli, and a recombinant fluorescent protein was purified. The recombinant fluorescent protein was incubated for 2 hours at 37° C. in a reaction buffer at pH 7.0, a reaction buffer at pH 4.0 (with 0.05% pepsin), and a reaction buffer at pH 4.0 (without 0.05% pepsin) in accordance with a previous report (Katayama, H, et al. (2008) Cell Struct. Funct. 33, 1-12), and was subjected to fluorescence measurement. Before the fluorescence measurement, pHs of these samples were adjusted to coincide with each other by diluting each sample with a buffer (pH 7.0) by 200 folds. The reaction buffers had each been prepared as 25 mM HEPES buffer (pH 7.0) or 25 mM acetic acid buffer (pH 4.0) (119 mM NaCl, 2.5 mM KCl, 2 mM CaCl2, 2 mM MgCl2, and 30 mM Glucose).

[2] = test system: MEF cells; experiment: Detection of autophagy in mammalian cells (ratio imaging); format: cell-based, Mouse; conditions: living MEF cells, HBSS 37° C. 2 hours
Experimental: SRAI/pcDNA3 was introduced into MEF cells so as to express SRAI therein, and whether or not SRAI was suitable for observation of autophagy was evaluated. As a control, mCherry-EGFP was used. In order for mCherry-EGFP to be equivalent to an amino acid sequence presented in a previous report (Elsa-Noah N'Diaye, et al., (2009) EMBO reports 10, 173-179), (i) a BamHI/HindIII fragment of mCherry, which fragment contained no stop codon, (ii) a HindIII/EcoRI fragment of EGFP, in which fragment cDNA encoding a linker ([…]) (SEQ ID NO: 6) at N-terminus was added, and (iii) a BamHI/EcoRI fragment of pcDNA3 were ligated with each other, thereby producing mCherry-EGFP/pcDNA3. […]
In imaging, Cool SNAP HQ2 (Photometrics) was used as a camera, UplanF1 40× oil N.A.1.30 (Olympus) was used as an objective lens, and U-MCFPH Q (for AFFP), U-MYFPH Q (for Ypet), U-MRFPH Q (for mCherry), and U-MGFPH Q (for EGFP) were used as filter cubes (each cube is manufactured by Olympus). Images were obtained and analyzed with use of MetaMorph (Universal Imaging Corporation). […]
Further, Rosella was introduced into MEF cells in an attempt to visualize and detect autophagy. […] Images were obtained and analyzed with use of MetaMorph (Universal Imaging Corporation), and ratio images were produced as DsRed.T3/SE P in IMD display in a range of 0 to 1 (the scale bar for FIG. 12 is 20 μm).

[3] = test system: MEF cells; experiment: Detection of autophagy in fixed mammalian cells; format: cell-based, Mouse; conditions: MEF cells fixed 15 minutes in PBS containing 4% PFA
Experimental: Subsequently, examination was conducted to examine whether or not SRAI would detection of autophagy also in fixed cells. The same operations as those of the autophagy detection above were conducted, except that (i) only SRAI was observed and (ii) after observation of living cells, the cells were fixed and observed again in the same field of view. The living cells were fixed for 15 minutes at room temperature in PBS containing 4% PFA, and cells thus fixed were subjected to washing with use of HBSS (5 minutes×3 times) and then subjected to observation for the second time.

[4] = test system: MEF cells; experiment: Detection of mitophagy in mammalian cells using mt-SRAI′; format: cell-based, Mouse; conditions: 30 μM CCCP, 18 hours, MEF cells with mCherry-Parkin, compared to before addition
Experimental: A construct that expresses mt-SRAI′ was introduced into MEF cells, in an attempt to visualize and detect mitophagy. mt-SRAI/pMCSTRE3G, pEF1α-Tet3G, and mCherry-Parkin/pcDNA3 which is a factor necessary for mitophagy, were introduced, each in an amount of 0.5 μg, into MEF cells with use of Lipofectamine (Registered Trademark) 2000. Six hours after the introduction, the medium was replaced by a nutrient medium containing 1 μg/ml doxycycline. Twenty-four hours later, induction of expression was stopped, and the nutrient medium was replaced by a nutrient medium containing no doxycycline, so that localization and degradation of a probe remaining in the cytoplasm was encouraged. Eighteen hours later, mitophagy was induced with use of 30 μM carbonyl cyanide m-chlorophenylhydrazone (CCCP), and then 18 hours later, the cells were subjected to imaging. […] In performing the imaging and obtaining and analyzing the images, the same conditions as those for the detection of autophagy in fixed mammalian cells were applied. Ratio images were generated in IMD display in a range of 0 to 0.4.

[5] = Escherichia coli test: fluorescence intensity of purified recombinant proteins; format: physicochemical; conditions: expressed at 18° C., buffer at pH 7.0, equal protein concentration
Experimental: AFFP and mAG407 were expressed in Escherichia coli (18° C.) and a mammalian cell (Mouse embryonic fibroblast (MEF) cell) (37° C.) so as to be compared with each other in terms of fluorescence intensity. Comparison of fluorescence intensity between AFFP and mAG407 which were expressed in Escherichia coli was conducted in accordance with a previous report (Katayama, H, et al., (2008) Cell Struct. Funct. 33, 1-12). The concentrations of purified recombinant proteins were adjusted to coincide with each other, and the fluorescence intensity of each fluorescent protein was measured in a buffer at pH 7.0. A test conducted with respect to a protein expressed in Escherichia coli in accordance with the aforementioned Katayama, H, et al. will be hereinafter simply referred to as “Escherichia coli test.”
Both in the Escherichia coli test and the MEF cell test, AFFP was excited with use of excitation light having an excitation peak wavelength (406 nm) and mAG407 was excited with use of excitation light having an excitation peak wavelength (407 nm), in the measurement of fluorescence intensity. Further, both in the Escherichia coli test and the MEF cell test, the intensity of fluorescence emitted from AFFP was set to 1 in numerical representation and plotting of fluorescence intensity.

[6] = Escherichia coli test: pH dependency of fluorescence intensity; format: physicochemical
Experimental: As a control for AFFP, a protein was selected as appropriate from green fluorescent proteins (EGFP and Sapphire), a yellow fluorescent protein (Ypet), and red fluorescent proteins (mCherry and Tag-RFP).
With use of EGFP and mCherry as controls, an Escherichia coli test was conducted to examine pH dependency of a change in fluorescence intensity of AFFP. In the Escherichia coli test, fluorescence intensity of a purified recombinant protein obtained was measured under nine pH conditions ranging from pH 4.0 to 8.0 with an increment of 0.5. The fluorescence intensity of each fluorescent protein under each pH condition was plotted. Note that the plotting was performed in such a manner that a maximum fluorescence intensity of each fluorescent protein was set to 1, and fluorescence intensities of the fluorescent protein under other pH conditions were plotted as relative values with respect to 1.
With use of EGFP, Sapphire, Ypet, mCherry, and Tag-RFP as controls, an Escherichia coli test was conducted to examine pH dependency of a change in fluorescence intensity of AFFP. In the Escherichia coli test, fluorescence intensities in respective cases of pH 7.0 and pH 4.0 were measured. Then, fluorescence intensities of the fluorescent proteins under the two pH conditions were compared. Note that the fluorescence intensity of each protein at pH 7.0 was set to 1. […]

[7] = acidic condition (pH 4.0/no pepsin)
[8] = acidic condition with pepsin added (pH 4.0/0.05% pepsin)
[9] = neutral condition (pH 7.0/no pepsin)

SRAI: FRET probe obtained by ligating Ypet, a (GGGGS)3 linker, and AFFP in this order
fluorescence spectrum, excitation 410 nm [1, 7]: reduction in peak of fluorescence from Ypet | fluorescence spectrum, excitation 500 nm [1, 7]: single weak peak | fluorescence spectrum, excitation 410 nm [1, 8]: only a single peak that was based on fluorescence from AFFP | fluorescence spectrum, excitation 500 nm [1, 8]: no fluorescence | fluorescence spectrum, excitation 410 nm [1, 9]: two peaks | fluorescence spectrum, excitation 500 nm [1, 9]: single intense peak | autophagy signal (bright points, high-ratio structures in ratio image) [2]: a bright point (dot) and a red point in a ratio image were observed | autophagy signal before and after fixation [3]: little change was observed

N#CC(C#N)=NNc1cccc(Cl)c1 [CCCP, carbonyl cyanide m-chlorophenylhydrazone]
mitophagy induction (red points in ratio images) [4]: significant increase of red points

B1: AFFP: modified mAG407 further having mutations T58S, V60S, T82A, R184S, K199E, Y210C, Y217A; green fluorescent protein used as FRET donor (protein)
chain: MVSVIKPEMKIKLCMRGTVNGHNFVIEGEGKGNPYEGTQILDLNVTEGAPLPFAYDILSTSFQYGNRAFTKYPADIQDYFKQAFPEGYHWERSMTYEDQGICTATSNISMRGDCFFYDIRFDGTNFPPNGPVMQKKTLKWEPDTEKMYVEDGVLKGDVNMRLLLEGGGHYRCDVKTTYKAKKEVSLPDAHKIDHRIEILEHDKDYNKVKLCENAVARASMLPSQAK
fluorescence intensity relative to mAG407 [5]: 2.5 times | pH dependency of fluorescence intensity ([6]; nine pH conditions, pH 4.0 to 8.0, controls EGFP and mCherry): substantially constant fluorescence intensity | fluorescence intensity at pH 4.0 versus pH 7.0 ([6]; pH 7.0 set to 1, controls EGFP, Sapphire, Ypet, mCherry, Tag-RFP): not affected by a change in pH | degradation by acidic protease (western blotting, fluorescence) ([1]; pH 4.0/0.05% pepsin, 37° C., 2 hours): not degraded by acidic protease
